Results as given in patent US20260209345A1 (IOMX THERAPEUTICS, published 2026).
Residue numbers refer to the chain shown, from its start.

B1: A-013 (antibody, V domains shown)
VH: QVQLVQSGAEVKKPGSSVKVSCKASGGTFRQEAFSWVRQAPGQGLEWMGSIIPIFYSSNYAQKFQGRVTITADESTSTAYMELSSLRSEDTAVYYCAKDLGTYSSGWPYYYGMDVWGQGTTVTVSS
VL: SYELTQPPSVSVSPGQTASITCSGDKLGDKYASWYQQKPGQSPVLVIYQDSKRPSGIPERFSGSNSGNTATLTISGTQAEDEADYYCQSTTHTSFVFGGGTKLTVL
notes: tested as IgG
B2: A-019 (antibody, V domains shown)
VH: QVQLVQSGAEVKKPGSSVKVSCKASGYTFTTSAMNWVRQAPGQGLEWMGGIIPYFSTANYAPKFQGRVTITADESTSTAYMELSSLRSEDTAVYYCAKDLGTYSSGWPYYYGMDVWGQGTTVTVSS
VL: B1 VL
notes: tested as IgG
B3: A-020 (antibody, V domains shown)
VH: B1 VH with R30Q, Q31T, E32Y, F34I, I54K, S57Q, Q62Y
VL: B1 VL
notes: tested as IgG
B4: A-035 (antibody, V domains shown)
VH: B1 VH with R30S, Q31S, E32Y, F34I, S50G, Y56G, S57T, S58A
VL: B1 VL with S89L, T90S, T91H, H92G, S94L, F95L
notes: tested as IgG
B5: A-017 (antibody, V domains shown)
VH: B2 VH with Y27G, T30S, T31S, S32Y, M34I, N35S, T57L
VL: B1 VL
notes: tested as IgG
B6: A-014 (antibody, V domains shown)
VH: B1 VH with R30S, Q31S, E32Y, F34I, S35N, S50G, Y56H, S57T
VL: B1 VL
notes: tested as IgG
B7: A-018 (antibody, V domains shown)
VH: B1 VH with R30S, Q31T, E32S, F34I, S50G, S57T, S58A
VL: B1 VL
notes: tested as IgG
B8: A-021 (antibody, V domains shown)
VH: B1 VH with T28S, F29I, R30T, Q31S, E32Y, S35A, S50G, I54G, S57A, S58A
VL: B1 VL
notes: tested as IgG
B9: A-015 (antibody, V domains shown)
VH: B2 VH with Y27G, T28S, T30Q, T31S, S32Y, M34I, Y54G, P62Q
VL: B1 VL
notes: tested as IgG
B10: A-034 (antibody, V domains shown)
VH: B1 VH with R30S, Q31S, E32Y, F34I, S50G, Y56G, S57T, S58A
VL: B1 VL with S89L, T90Y, T91G, S94I, F95T
notes: tested as IgG
B11: A-016 (antibody, V domains shown)
VH: B1 VH with R30S, Q31S, E32Y, S35N, Y56K, S57T, S58A
VL: B1 VL
notes: tested as IgG
B12: A-003 (antibody, V domains shown)
VH: QVQLVQSGAEVKKPGSSVKVSCKASGGTFSSYAISWVRQAPGQGLEWMGGIIPIFGTANYAQKFQGRVTITADESTSTAYMELSSLRSEDTAVYYCAKGPPVGSSSWYTDWYFDLWGRGTLVTVSS
VL: SYELTQPPSVSVSPGQTASITCSGDKLGDKYASWYQQKPGQSPVLVIYQDSKRPSGIPERFSGSNSGNTATLTISGTQAEDEADYYCLSYGAHSHGVVFGGGTKLTVL
notes: tested as IgG; also called parental antibody A-003
B13: A-047 (antibody, V domains shown)
VH: B12 VH with G27Y, S31K, Y32S, I34M, I52V, I54K, G56H, A58S, N59V
VL: SYELTQPPSVSVSPGQTASITCSGDKLGDKYASWYQQKPGQSPVLVIYQDSKRPSGIPERFSGSNSGNTATLTISGTQAEDEADYYCSLYGAGHTVVFGGGTKLTVL
notes: tested as IgG
B14: A-028 (antibody, V domains shown)
VH: B12 VH with G27Y, T28S, S31E, Y32H, I34M, I54K, G56S, A58S, N59V, Y60F
VL: B12 VL
notes: tested as IgG
B15: A-023 (antibody, V domains shown)
VH: B12 VH with G27Y, S30Q, S31Q, I34M, M48I, I54Q, G56S, A58S, N59V
VL: B12 VL
notes: tested as IgG
B16: A-029 (antibody, V domains shown)
VH: B12 VH with G27Y, S31I, I34M, I54S, G56R, N59V
VL: B12 VL
notes: tested as IgG
B17: A-025 (antibody, V domains shown)
VH: B12 VH with G27Y, S31K, Y32S, I34M, I52V, I54K, G56H, A58S, N59V
VL: B12 VL
notes: tested as IgG
B18: A-032 (antibody, V domains shown)
VH: B12 VH with S30Q, I34F, I52V, I54Q, F55Y, G56S, N59V
VL: B12 VL
notes: tested as IgG
B19: A-031 (antibody, V domains shown)
VH: B12 VH with G27Y, S30T, S31K, Y32T, I34M, I54S, F55Y, G56Y, N59V
VL: B12 VL
notes: tested as IgG
B20: A-026 (antibody, V domains shown)
VH: B12 VH with G27Y, S30T, Y32H, A33G, I34M, I52L, G56H, N59T
VL: B12 VL
notes: tested as IgG
B21: A-024 (antibody, V domains shown)
VH: B12 VH with G27Y, S30T, S31G, Y32S, I34M, I52L, A58S, N59V
VL: B12 VL
notes: tested as IgG
B22: A-033 (antibody, V domains shown)
VH: B12 VH with G27Y, Y32H, I34M, I54T, G56K, N59V, Y60F
VL: B12 VL
notes: tested as IgG
B23: A-027 (antibody, V domains shown)
VH: B12 VH with T28S, S30T, S31G, I52L, I54S, G56Y, N59V
VL: B12 VL
notes: tested as IgG
B24: A-030 (antibody, V domains shown)
VH: B12 VH with T28S, S30Q, I34F, I52V, F55Y, G56Y, N59T
VL: B12 VL
notes: tested as IgG

biological target: T1, recombinant LILRB1 ECD (human, UniProt Q8NHL6 24-461); test: ELISA, LILRB1 ECD binding to HLA-G-Fc
T1 construct: also called biotinylated LILRB1 ECD
T1 sequence (Q8NHL6 24-461 limits assumed): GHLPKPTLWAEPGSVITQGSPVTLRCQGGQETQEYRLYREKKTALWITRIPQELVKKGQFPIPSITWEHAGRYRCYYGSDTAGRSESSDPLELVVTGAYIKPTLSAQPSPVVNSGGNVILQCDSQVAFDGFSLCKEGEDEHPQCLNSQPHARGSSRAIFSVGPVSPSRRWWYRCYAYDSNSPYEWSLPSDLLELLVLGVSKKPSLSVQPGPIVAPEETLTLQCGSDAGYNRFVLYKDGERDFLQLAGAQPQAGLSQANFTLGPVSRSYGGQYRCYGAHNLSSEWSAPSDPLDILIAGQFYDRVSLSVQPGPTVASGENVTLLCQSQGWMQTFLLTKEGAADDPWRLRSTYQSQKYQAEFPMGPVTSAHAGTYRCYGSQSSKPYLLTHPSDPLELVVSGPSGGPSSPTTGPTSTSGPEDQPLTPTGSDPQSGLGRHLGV
Method: (§1) HLA-G inhibition was tested by ELISA. 384-well Maxisorp plates were coated with 2 ug/mL B2M-HLA-G fused to a mouse IgG2a-Fc and the plates were blocked with 2% (w/v) BSA in PBST. […] 15 ul of the antibody dilution series (300 nM to 0.3 nM) were mixed with 30 μL of the pre-mixed LILRB/Avidin-HRP solution (final antibody concentration 100 nM to 0.1 nM) and incubated for 1 h at room temperature. After three wash cycles with PBST, 20 μL of the antibody/LILRB/Avidin-HRP solution was transferred to the plate with immobilized HLA-G and incubated for 15 min at room temperature. After three wash cycles with PBST, residual LILRB binding to HLA-G was detected by developing the ELISA with TMB substrate.

Row | Binder | IC50 [nM]
1 | B1 | 4.5
2 | B2 | 4
3 | B3 | 3.7
4 | B4 | 1.7
5 | B5 | 4.5
6 | B6 | 3.8
7 | B7 | 5
8 | B8 | 4.2
9 | B9 | 4.4
10 | B10 | 3.3
11 | B11 | 4.4
12 | B12 | 16.5
13 | B13 | 1.9
14 | B14 | 3.9
15 | B15 | 7.5
16 | B16 | 6.5
17 | B17 | 5.1
18 | B18 | 10.5
19 | B19 | 4.1
20 | B20 | 6.1
21 | B21 | 3.9
22 | B22 | 8.3
23 | B23 | 7
24 | B24 | 6.7

biological target: T2, recombinant LILRB2 ECD (human, UniProt Q8N423 22-460); test: ELISA, LILRB2 ECD binding to HLA-G-Fc
T2 construct: also called biotinylated LILRB2 ECD
T2 sequence (Q8N423 22-460 limits assumed): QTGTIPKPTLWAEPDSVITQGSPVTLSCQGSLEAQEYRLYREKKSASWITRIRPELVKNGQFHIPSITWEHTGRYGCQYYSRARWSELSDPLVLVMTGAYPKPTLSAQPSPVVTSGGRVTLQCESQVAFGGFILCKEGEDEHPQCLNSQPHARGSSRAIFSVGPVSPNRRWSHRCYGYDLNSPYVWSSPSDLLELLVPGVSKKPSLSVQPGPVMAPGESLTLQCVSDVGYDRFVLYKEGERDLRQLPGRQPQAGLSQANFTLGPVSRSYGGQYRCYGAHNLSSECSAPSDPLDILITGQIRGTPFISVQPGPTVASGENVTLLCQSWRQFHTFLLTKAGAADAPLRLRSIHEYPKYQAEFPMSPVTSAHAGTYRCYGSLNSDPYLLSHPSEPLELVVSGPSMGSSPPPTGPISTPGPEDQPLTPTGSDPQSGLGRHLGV
Method: as §1

Row | Binder | IC50 [nM]
25 | B1 | 4.6
26 | B2 | 4.9
27 | B3 | 3.8
28 | B4 | 3.5
29 | B5 | 4.4
30 | B6 | 4.2
31 | B7 | 5.1
32 | B8 | 5
33 | B9 | 3.2
34 | B10 | 5.6
35 | B11 | 5.1
36 | B12 | 65.8
37 | B13 | 4.6
38 | B14 | 3.9
39 | B15 | 6.8
40 | B16 | 5.6
41 | B17 | 4.3
42 | B18 | 7.6
43 | B19 | 4.2
44 | B20 | 5.3
45 | B21 | 3.3
46 | B22 | 8.6
47 | B23 | 5.6
48 | B24 | 4.4

biological target: T2, recombinant LILRB2 ECD; test: BLI, IgG on AHC sensor, ECD in solution
Method: (§2) Briefly, IgGs were captured on anti-human capture (AHC) biosensors (Sartorius). […] Subsequently, the sensors were dipped into 1× Kinetics Buffer to measure the dissociation over 420 s. All sensorgrams were double referenced against 1× Kinetics Buffer and unloaded […] sensors to subtract sensor drifts and potential reference binding of the analytes. The affinities were determined by applying a 1:1 binding model.

Row | Binder | Kd [nM]
49 | B1 | 4.2
50 | B2 | 3.9
51 | B3 | 2.9
52 | B4 | 30.8
53 | B5 | 1.7
54 | B6 | 2.3
55 | B7 | 2.7
56 | B8 | 3.1
57 | B9 | 3.5
58 | B10 | 82.7
59 | B11 | 1.4
60 | B12 | 73.1
61 | B13 | 1.7
62 | B14 | 1.6
63 | B15 | 4.3
64 | B16 | 2.7
65 | B17 | 4.2
66 | B18 | 2.5
67 | B19 | 0.9
68 | B20 | 3.9
69 | B21 | 3.6
70 | B22 | 1.4
71 | B23 | 1.9
72 | B24 | 3.2

biological target: T3, recombinant LILRA1 ECD (human, UniProt O75019 17-461); test: BLI, IgG on AHC sensor, ECD in solution
T3 construct: whole canonical entry named; also called LILA1
T3 sequence (O75019 17-461 limits assumed): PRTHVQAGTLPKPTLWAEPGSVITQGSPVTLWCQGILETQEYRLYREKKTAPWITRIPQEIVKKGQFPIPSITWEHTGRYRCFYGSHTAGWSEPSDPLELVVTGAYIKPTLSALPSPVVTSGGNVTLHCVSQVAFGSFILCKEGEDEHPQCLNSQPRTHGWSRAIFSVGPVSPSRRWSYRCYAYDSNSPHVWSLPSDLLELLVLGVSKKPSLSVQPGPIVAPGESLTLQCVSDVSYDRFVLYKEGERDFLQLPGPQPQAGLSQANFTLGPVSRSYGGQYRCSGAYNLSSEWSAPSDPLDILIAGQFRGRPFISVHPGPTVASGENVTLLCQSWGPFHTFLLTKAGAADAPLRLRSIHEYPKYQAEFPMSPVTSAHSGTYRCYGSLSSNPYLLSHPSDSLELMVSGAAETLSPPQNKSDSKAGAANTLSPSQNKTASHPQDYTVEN
Method: as §2

Row | Binder | Kd [nM]
73 | B1 | 1080
74 | B2 | 1030
75 | B3 | 316
76 | B4 | 734
77 | B5 | 591
78 | B6 | 471
79 | B7 | 808
80 | B8 | 541
81 | B9 | 868
82 | B10 | 2690
83 | B11 | 402
84 | B12 | 342
85 | B13 | 128
86 | B14 | 48.3
87 | B15 | 82.4
88 | B16 | 29.5
89 | B17 | 71.3
90 | B18 | 79.5
91 | B19 | 11.6
92 | B20 | 120
93 | B21 | 31.8
94 | B22 | 23
95 | B23 | 33.9
96 | B24 | 63.8

biological target: T1, recombinant LILRB1 ECD; test: BLI, IgG on AHC sensor, ECD in solution
Method: as §2

Row | Binder | Kd [nM]
97 | B1 | 6.3
98 | B2 | 20.7
99 | B3 | 21.2
100 | B4 | 12.9
101 | B5 | 2.3
102 | B6 | 4.4
103 | B7 | 6.2
104 | B8 | 4.9
105 | B9 | 5
106 | B10 | 16.4
107 | B11 | 6.5
108 | B12 | 99.4
109 | B13 | 2.6
110 | B14 | 1.8
111 | B15 | 3.1
112 | B16 | 1.9
113 | B17 | 1.8
114 | B18 | 2.2
115 | B19 | 0.8
116 | B20 | 4.4
117 | B21 | 1.2
118 | B22 | 0.5
119 | B23 | 0.5
120 | B24 | 3.2

biological target: T4, recombinant LILRA3 (human, UniProt Q8N6C8 24-439); test: BLI, IgG on AHC sensor, ECD in solution
T4 construct: whole entry named; also called LILRA3 ECD; LILA3
T4 sequence (Q8N6C8 24-439 limits assumed): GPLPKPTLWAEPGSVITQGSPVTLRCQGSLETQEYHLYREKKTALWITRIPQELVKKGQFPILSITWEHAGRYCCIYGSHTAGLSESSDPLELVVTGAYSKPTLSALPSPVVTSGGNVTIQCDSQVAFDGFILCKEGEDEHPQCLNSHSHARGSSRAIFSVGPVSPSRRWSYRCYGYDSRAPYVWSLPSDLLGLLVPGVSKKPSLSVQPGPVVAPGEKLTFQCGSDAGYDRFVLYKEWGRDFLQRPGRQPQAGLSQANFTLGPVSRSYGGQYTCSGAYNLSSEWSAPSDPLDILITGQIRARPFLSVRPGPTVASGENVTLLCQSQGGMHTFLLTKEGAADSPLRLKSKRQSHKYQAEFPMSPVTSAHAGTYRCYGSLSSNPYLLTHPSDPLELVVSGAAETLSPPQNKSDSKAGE
Method: as §2

Row | Binder | Kd [nM]
121 | B1 | 622
122 | B2 | 144
123 | B3 | 392
124 | B4 | 1250
125 | B5 | 223
126 | B6 | 58.8
127 | B7 | 212
128 | B8 | 157
129 | B9 | 202
130 | B10 | 678
131 | B11 | 116
132 | B12 | 519
133 | B13 | 318
134 | B14 | 187
135 | B15 | 230
136 | B16 | 123
137 | B17 | 166
138 | B18 | 253
139 | B19 | 50.1
140 | B20 | 79.3
141 | B21 | 64.8
142 | B22 | 84.8
143 | B23 | 124
144 | B24 | 124
